Experimental data published in patent US20250059294A1 (PURINOMIA BIOTECH, published 2025).
Several values for one entry are separate records, joined by “and”; a condition that tells them apart may be missing. Identical values can stand only once.

Key:
[1] = target: T1, human CD39 (ectonucleoside triphosphate diphosphohydrolase-1) (human, UniProt P49961 1-510); assay: flow cytometry; HCC1739BL cells
T1 chain: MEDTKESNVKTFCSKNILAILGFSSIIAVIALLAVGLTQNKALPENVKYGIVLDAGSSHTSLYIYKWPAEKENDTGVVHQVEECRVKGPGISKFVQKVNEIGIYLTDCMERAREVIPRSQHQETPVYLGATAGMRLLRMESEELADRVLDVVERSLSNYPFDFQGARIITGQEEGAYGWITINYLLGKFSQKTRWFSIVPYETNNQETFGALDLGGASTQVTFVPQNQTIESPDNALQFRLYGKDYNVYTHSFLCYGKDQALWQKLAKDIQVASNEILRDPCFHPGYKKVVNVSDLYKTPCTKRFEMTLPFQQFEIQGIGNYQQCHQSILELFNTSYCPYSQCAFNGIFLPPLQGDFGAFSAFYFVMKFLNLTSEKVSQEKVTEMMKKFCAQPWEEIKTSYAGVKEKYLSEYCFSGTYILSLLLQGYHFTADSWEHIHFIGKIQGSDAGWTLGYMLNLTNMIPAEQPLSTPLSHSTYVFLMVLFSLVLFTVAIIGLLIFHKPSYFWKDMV

[2] = target: T2, human CD39 (ectonucleoside triphosphate diphosphohydrolase-1) (human, UniProt P49961 1-510); assay: cell-based or functional assay
T2 sequence (looked up): T1 chain

[3] = target: T2, human CD39 (ectonucleoside triphosphate …); assay: flow cytometry, serial dilution on HCC1739BL cells, 30 min at 4 °C
Description: FIG. 1. Affinity of Ig39-21 measured by flow cytometry using human CD39hi human B lymphoblastoid (HCC1739BL) cells. Our fully human anti-CD39 antibody clone Ig39-21 produced by transient transfection was serially diluted as indicated and incubated with HCC1739BL cells for 30 minutes at 4° C., followed by flow cytometric analysis.

[4] = target: T2, human CD39 (ectonucleoside triphosphate …); assay: flow cytometry, serial dilution on CHO-hCD39 cells, anti-human IgG Fc AF488 secondary
Description: FIG. 10. […] Ig39-21 WT, Ig39-21 AF or NP501-BK (an optimized version of Ig39-21 by production using stably transfected cells) were serially diluted as indicated and incubated with CHO-hCD39 cells for 30 minutes at 4° C. Cells were then stained with secondary antibody (anti-human IgG (Fc specific), Alexa Fluor® 488) for 30 minutes at 4° C. and analyzed by flow cytometry. Human IgG1 isotype control antibody (KLH-hIgG1) was used in parallel.

[5] = target: T2, human CD39 (ectonucleoside triphosphate …); assay: flow cytometry, serial dilution on HCC1739BL cells, anti-human IgG Fc AF488 secondary
Description: FIG. 11. […] Ig39-21 WT, Ig39-21 AF or NP501-BK were serially diluted as indicated and incubated with HCC1739BL cells for 30 minutes at 4° C. Afterwards, cells were stained with secondary antibody (anti-human IgG (Fc specific), Alexa Fluor® 488) for 30 minutes at 4° C. and analyzed by flow cytometry. Human IgG1 isotype control antibody (KLH-hIgG1) was used in parallel.

B1: Human/Rabbit chimeric clone 8D8 (antibody, V domains shown)
VH: QSVEESGGRLVTPGTPLTLTCTVSGFSLSSYAISWVRQAPGKGLEYIAIINSYGTTYYASWAKGRVTISKTSSTVDLKISSPTTEDTATYFCARGDSYGSGVGLGLWGPGTLVTVSS
VL: AYDMTQTPASVEVAVGGTVTIKCQASQNIYSNLAWYQQKPGQRPKLLIYRASSLASGVPSRFSGSGSGTEFTLTISGVQCDDAATYYCQQGFSSNNVDNTFGGGTEVVVK
Kd [1]: 1.1 nM

B2: Human/Rabbit chimeric clone 9B6 (antibody, human IgG1, V domains shown)
VH: QSVKEAGGRLVTPGGSLTLTCTVSGFSLSAYGISWVRQAPGKGLEWIGIIYSSGRTYYANWAKGRFTISKTSSTTVDLKMTSLTTEDTAAYFCARSRAGISSGDGFDSWGPGTLVTVSS
VL: ALVMTQTPSSVSAAVGGTVTINCQASQNIYSNLAWYQQKPGQRPQLLIYRASTLASGVPSRFKGSASGTEYTLTISGVQCDDAATYYCQQGFDSSNIDNTFGGGTEVVVT
ADCC Luc-reporter assay, HCC1739BL target cells, EC50 [2]: 22 ng/mL

B3: Ig39-21 WT (antibody, human IgG1, kappa, V domains shown)
VH: EVQLVESGGGVVRPGGSLRLSCAASGFTFSSYAMHWVRQAPGKGLEWVAVISYDVSNKYYADSVKGRFTISRDNSKNTLYLQMNSLRAEDTAVYYCARSYYYYYGMDVWGQGTTVTVSS
VL: DVVMTQSPSSLSASVGDRVTITCRASQSISRYLAWYQQKPGQAPRLLIYDASNRATGIPVRFSGSGSGTDFTLTISRLEPEDFAVYYCQQFGRSPRTFGQGTRLEIKR
notes: also called fully human anti-CD39 antibody clone Ig39-21
ADCC Luc-reporter assay (Jurkat hCD16a-158V effector cells), HCC1739BL target cells, EC50 [2]: 0.014 µg/mL
ADCC Luc-reporter assay, HCC1739BL target cells, EC50 [2]: 14 ng/mL and 20 ng/mL
CDC assay (10% Normal Human Serum), Raji-hCD39hi target cells, EC50 [2]: 0.38 µg/mL
Kd [3]: 0.412 nM
Kd [4]: 0.52 nM
Kd [5]: 0.29 nM

B4: NP501-BK (antibody, V domains shown)
VH: B3 VH
VL: B3 VL
modifications: decreased fucosylation by optimized production process
notes: 'An optimized version of Ig39-21 by production using stably transfected cells' (CHO); also called Optimized Ig39-21
ADCC Luc-reporter assay, HCC1739BL target cells, EC50 [2]: 1.7 ng/mL
CDC assay (10% Normal Human Serum), Raji-hCD39hi target cells, EC50 [2]: 0.31 µg/mL
Kd [4]: 0.48 nM
Kd [5]: 0.16 nM

B5: Ig39-21 AF (antibody, human IgG1, kappa, V domains shown)
VH: B3 VH
VL: B3 VL
modifications: afucosylated glycan (produced in presence of fucosylation inhibitor 2-Deoxy-2-fluoro-L-fucose)
notes: also called afucosylated Ig39-21
ADCC Luc-reporter assay, HCC1739BL target cells, EC50 [2]: 0.86 ng/mL and 0.8 ng/mL
CDC assay (10% Normal Human Serum), Raji-hCD39hi target cells, EC50 [2]: 0.25 µg/mL
Kd [4]: 0.51 nM
Kd [5]: 0.35 nM

B6: Human/Rabbit chimeric clone 9C10 (antibody, V domains shown)
VH: QSVEESGGRLVTPGTPLTLTCTVSGFSLSSYAMSWVRQAPGKGLEYIGIISSSGSTYYASWAKGRFTISKTSTTVDLKISSPTTEDTATYFCARDRVIYSIGPYYFNLWGPGTLVTVSS
VL: AYDMTQTPSSVSATVGGTVTINCQASEIIYSNLAWYQQKPGQPPKLLIYGASTLASGVPSRFKGSGSGTEYTLTISDLQCDDAATYYCQQSFSSNNVGNIFGGGTEVVVK
Kd [1]: 2.95 nM

B7: Human/Rabbit chimeric clone 8C11 (antibody, V domains shown)
VH: QSVEESGGRLVTPGTHLTLTCTVSGFSLSKSIISWVRQAPGKGLEYIGIIGSSGSTYYANWAKGRFTISKTSSTTVDLRMTSLTPEDTATYFCARGLLYSGNKSWGPGTLVTVSS
VL: AIDMTQTPSSVSAAVGGTVTINCQSSQSVLLNNQLSWFQQKPGQPPKLLIYDASTLESGVPSRFTGSGSGTQFTLTISDLECDDAATYYCLGGYSGNLYAFGGGTEVLVK
Kd [1]: 1.68 nM
